Experimental data from US20190015519A1, “MMP-SENSITIVE TAXANE PRODRUG” (Incanthera Ltd, priority 2015, published 2019).
Values joined by “and” are separate entries in the source; they are usually repeats but may differ in a detail not shown here. Equal entries are not always repeated. “Also recorded” adds a separate entry of the source.

Columns and labels:
PC3 xenografts = assay: Anti-tumour efficacy study in PC3 xenografts; type: in vivo, mouse; conditions: PC3-bearing mice; single dose; ICT3205 20 mg/kg, paclitaxel 7 mg/kg (molar equivalent)
MMP14 = MMP14 (Homo sapiens, UniProt P50281); assay: Cleavage by recombinant MMP14 in vitro (HPLC traces, mass spectrometry); type: biochemical; conditions: over 18 h
MMP 15 = MMP 15 (Homo sapiens, UniProt P51511); assay: Cleavage by recombinant MMP15 in vitro (HPLC traces); type: biochemical; conditions: over 18 h
MMP 15, sequence (P51511 132-669): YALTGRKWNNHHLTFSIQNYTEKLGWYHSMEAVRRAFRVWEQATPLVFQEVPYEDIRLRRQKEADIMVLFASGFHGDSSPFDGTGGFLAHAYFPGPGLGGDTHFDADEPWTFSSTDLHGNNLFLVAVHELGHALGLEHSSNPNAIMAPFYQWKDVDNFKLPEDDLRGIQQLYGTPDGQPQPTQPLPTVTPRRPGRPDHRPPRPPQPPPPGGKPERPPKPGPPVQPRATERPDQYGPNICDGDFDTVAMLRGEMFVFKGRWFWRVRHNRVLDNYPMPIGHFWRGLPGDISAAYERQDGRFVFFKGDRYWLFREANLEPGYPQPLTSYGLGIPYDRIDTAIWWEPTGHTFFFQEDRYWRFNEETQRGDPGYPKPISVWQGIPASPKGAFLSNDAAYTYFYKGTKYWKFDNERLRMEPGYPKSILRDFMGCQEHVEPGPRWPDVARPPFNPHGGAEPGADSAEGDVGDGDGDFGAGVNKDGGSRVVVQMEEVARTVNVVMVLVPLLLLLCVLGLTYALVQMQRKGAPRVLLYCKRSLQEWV

[1] = test system: prostate tumour-associated MT-MMPs; assay: Incubation in tissue culture media containing prostate tumour cells; type: cell-based; conditions: incubation at 20 um in tissue culture media with cells; compared to other agents tested
[2] = Incubation with PC3 tumour homogenate (tumour activation); type: in vitro ADME
Excerpt: A paclitaxel (Taxol) standard is shown in the top trace,
(§1) The relative importance of individual amino acids within the MT-MMP peptide recognition sequence has been investigated following extensive ex vivo metabolic studies. These studies employed tissue homogenates to assess activation of prodrug conjugates in tumour (PC-3) tissues and stability in normal tissues (liver kidney lung).

[3] = Metabolism in LNCaP prostate cancer cell line; type: in vitro ADME
[4] = Incubation with normal tissue homogenates (normal tissue stability); type: in vitro ADME
Protocol: Parent molecules are incubated with tissue homogenate and half lives calculated Green indicates acceptable whereas red is unacceptable.
as §1

[5] = In vivo murine pharmacokinetic study monitoring paclitaxel release in tumour, tissues and plasma
Excerpt: The early peak drug concentrations associated with paclitaxel dosing are removed by administration of prodrug. A 10-fold increase in tumour concentration of paclitaxel is observed following administration as ICT3205.
FIG. 21 provides a table highlighting in greater detail the disparity of distribution between normal tissues and tumour tissues for paclitaxel alone, parent ICT3205 and paclitaxel release from the prodrug.

[6] = Systemic toxicity by mouse body weight; type: in vivo; conditions: mice
[7] = ALL Taxol Compounds (1uM) PC3 Vs Liver Vs HT1080 Metabolism
Protocol: Table printed on a drawing sheet, Fig. 7 (Cont.)
Title: ALL Taxol Compounds (1uM) PC3 Vs Liver Vs HT1080 Metabolism
(§2) Footnotes: [diagonal hatching] Tumour (51-100%) / Liver (0-15%) / [horizontal hatching] Tumour & Liver (26-50%) / [cross hatching] Tumour (0-25%) / Liver (51-100%)
First reader's note: Continuation of Fig. 7; cell hatching classifies the values per the legend, and the title states 1uM while the head row states 1mM.

[8] = ALL Taxol Compounds (10uM) PC3 Vs Liver Vs HT1080 Metabolism
Protocol: Table printed on a drawing sheet, Fig. 8 (Cont.)
Title: ALL Taxol Compounds (10uM) PC3 Vs Liver Vs HT1080 Metabolism
as §2
First reader's note: Continuation of Fig. 8; the title prints 10uM while the head row prints 10mM, and cell hatching marks the classes given in the legend.

[9] = Top 3 Taxol Compounds (20uM) PC3 Vs LNCaP (x2) Vs PNT2 Cell-based assay
Protocol: Table printed on a drawing sheet, Fig. 9 (Cont.)
Title: Top 3 Taxol Compounds (20uM) PC3 Vs LNCaP (x2) Vs PNT2 Cell-based assay
Footnotes: [diagonal hatching] Tumour (51-100%) / Non-Tumour (0-15%) / [horizontal hatching] Tumour & Non-Tumour (26-50%) / [cross hatching] Tumour (0-25%) / Non-Tumour (51-100%)
First reader's note: Continuation of Fig. 9; cell shading (hatching) classifies the values by the legend, and all compounds were tested at 20uM in cell culture.

[10] = ALL Taxol Compounds (1uM) (ALL Tissue Metabolism)
Protocol: Table printed on a drawing sheet, Fig. 11
Title: ALL Taxol Compounds (1uM) (ALL Tissue Metabolism)
Footnotes: Tumour (51-100%) / Liver (0-15%) / Tumour & Liver (26-50%) / Tumour (0-25%) / Liver (51-100%)
First reader's note: Cell hatching codes the classes given in the legend; all compounds tested at 1uM in tissue homogenates.

[11] = PK study (PC3) ICT3205 - 15mg/kg (5mg/kg taxol) IP Almost undetectable concentrations of ICT3205 in tumour
Protocol: Table printed on a drawing sheet, Fig. 21
Title: PK study (PC3) ICT3205 - 15mg/kg (5mg/kg taxol) IP Almost undetectable concentrations of ICT3205 in tumour
Footnotes: Tumour AUC ↑ x10-fold Tumour Cmax ↑ x10-fold } For ACTIVE Taxol / ALSO Tissue AUC ↓ Tissue Cmax ↓ x10-fold } For ACTIVE Taxol
The patent's description of the figure: FIG. 21 provides a table highlighting in greater detail the disparity of distribution between normal tissues and tumour tissues for paclitaxel alone, parent ICT3205 and paclitaxel release from the prodrug.
First reader's note: The ratio cells span the three analyte rows of each tissue and are repeated in each row; the first PC3 row is printed as 'ICT2305' (boxed) and has its own empty Cmax Ratio cell.

CC(=O)O[C@H]1C(=O)[C@@]2(C)[C@H]([C@H](OC(=O)c3ccccc3)[C@]3(O)C[C@H](OC(=O)[C@H](O)[C@@H](NC(=O)c4ccccc4)c4ccccc4)C(C)=C1C3(C)C)[C@]1(OC(C)=O)CO[C@@H]1C[C@@H]2O [paclitaxel, Paclitaxel, reference compound]
anti-tumour effect (growth delay) (PC3 xenografts): no significant anti-tumour effect; also recorded: no efficacy

CC(=O)O[C@H]1C(=O)[C@@]2(C)C([C@H](OC(=O)c3ccccc3)[C@]3(O)C[C@H](OC(=O)[C@H](OC(=O)OCc4ccc(NC(=O)[C@H](CC(C)C)NC(=O)[C@H](Cc5ccc(O)cc5)NC(=O)[C@H](CCc5ccccc5)NC(=O)CNC(=O)[C@H](CCCNC(N)=O)NC(=O)[C@H](CO)NC(=O)[C@H](CCCNC(=N)N)NC(=O)CCNC(=S)Nc5ccc6c(c5)C(=O)OC65c6ccc(O)cc6Oc6cc(O)ccc65)cc4)[C@@H](NC(=O)c4ccccc4)c4ccccc4)C(C)=C1C3(C)C)[C@]1(OC(C)=O)CO[C@@H]1C[C@@H]2O (some centres unmarked) [ICT3205]
cleavage by recombinant MMP14 (MMP14): cleavage | cleavage by recombinant MMP 15 (MMP 15): cleavage | cleavage by prostate tumour-associated MT-MMPs and release of paclitaxel [1]: superior cleavage | metabolism (disappearance, activation) of conjugate in PC3 ([2]; PC3 prostate cancer cell line homogenate): disappearance; also recorded: metabolised equally quickly; also recorded: metabolised rapidly | paclitaxel release in PC3 tumour ([2]; PC3 tumour homogenate): differential release of free paclitaxel; also recorded: appearance of paclitaxel | metabolism of conjugate in LNCaP [3]: metabolised equally quickly | stability in kidney and liver homogenates ([4]; kidney and liver, over other molecules): marked increased stability | appearance of paclitaxel in liver homogenate ([4]; liver homogenate): not in the liver | conjugate stability in liver homogenate ([4]; liver homogenate): relative stability | stability in normal tissue homogenates ([4]; liver, kidney, lung): stable; also recorded: long in vitro ‘half-life’ and stability | levels of paclitaxel released from ICT3205 in heart ([5]; heart): < 0.5 µM | AUC ratio of paclitaxel released from ICT3205 compared to paclitaxel administered alone, normal tissues ([5]; normal tissues, AUC in uM.h, ICT3205 20 mg/kg vs paclitaxel 7 mg/kg): 0.05-0.99 | Cmax ratio of paclitaxel released from ICT3205 vs paclitaxel alone, other tissues ([5]; other tissues, ICT3205 20 mg/kg vs paclitaxel 7 mg/kg): 0.02-0.19 | levels of paclitaxel released from ICT3205 in plasma ([5]; plasma): below detectable levels | AUC ratio of paclitaxel released from ICT3205 compared to paclitaxel administered alone, tumour ([5]; tumour, AUC in uM.h, ICT3205 20 mg/kg vs paclitaxel 7 mg/kg): 16.2 | Cmax ratio of paclitaxel released from ICT3205 vs paclitaxel alone, tumour ([5]; tumour, ICT3205 20 mg/kg vs paclitaxel 7 mg/kg): 9.77 | increase in tumour concentration of paclitaxel following administration as ICT3205 ([5]; tumour, versus equimolar paclitaxel alone): 10 fold | anti-tumour effect (growth delay) (PC3 xenografts): highly significant growth delay; also recorded: superior anti-tumour effects | toxicity and adverse systemic effects as indicated by mouse body weight [6]: no toxicity and no adverse systemic effects | Tissue Homogenate Metabolism (1 µM) | HT1080 Stability (% loss) [7]: 60 % loss | Tissue Homogenate Metabolism (1 µM) | HT1080 Taxol Release (% gain) [7]: 58 % gain | Tissue Homogenate Metabolism (1 µM) | Liver Stability (% loss) [7]: 12 % loss | Tissue Homogenate Metabolism (1 µM) | Liver Taxol Release (% gain) [7]: 19 % gain | Tissue Homogenate Metabolism (1 µM) | PC3 Stability (% loss) [7]: 77 % loss | Tissue Homogenate Metabolism (1 µM) | PC3 Taxol Release (% gain) [7]: 85 % gain | Tissue Homogenate Metabolism (10 µM) | HT1080 Stability (% loss) [8]: 48 % loss | Tissue Homogenate Metabolism (10 µM) | HT1080 Taxol Release (% gain) [8]: 55 % gain | Tissue Homogenate Metabolism (10 µM) | Liver Stability (% loss) [8]: 12 % loss | Tissue Homogenate Metabolism (10 µM) | Liver Taxol Release (% gain) [8]: 21 % gain | Tissue Homogenate Metabolism (10 µM) | PC3 Stability (% loss) [8]: 54 % loss | Tissue Homogenate Metabolism (10 µM) | PC3 Taxol Release (% gain) [8]: 60 % gain | Cell Culture Metabolism (20uM) | LNCaP (2) Taxol Release (% gain) [9]: 81 % gain | Cell Culture Metabolism (20uM) | LNCaP Stability (% loss) [9]: 100 % loss | Cell Culture Metabolism (20uM) | LNCaP Taxol Release (% gain) [9]: 73 % gain | Cell Culture Metabolism (20uM) | PC3 Stability (% loss) [9]: 84 % loss | Cell Culture Metabolism (20uM) | PC3 Taxol Release (% gain) [9]: 49 % gain | Cell Culture Metabolism (20uM) | PNT2 Stability (% loss) [9]: 21 % loss | Cell Culture Metabolism (20uM) | PNT2 Taxol Release (% gain) [9]: 12 % gain | Tissue Homogenate Metabolism (1uM) | Kidney Stability (% loss) [10]: 4 % loss | Tissue Homogenate Metabolism (1uM) | Kidney Taxol Release (% gain) [10]: 4 % gain | Tissue Homogenate Metabolism (1uM) | Lung Stability (% loss) [10]: 19 % loss | Tissue Homogenate Metabolism (1uM) | Lung Taxol Release (% gain) [10]: 12 % gain | Tmax [11]: 4 h and 2 h

MeO (PEG) [ICT3200]
Tissue Homogenate Metabolism (1 µM) | HT1080 Stability (% loss) [7]: 72 % loss | Tissue Homogenate Metabolism (1 µM) | HT1080 Taxol Release (% gain) [7]: 29 % gain | Tissue Homogenate Metabolism (1 µM) | Liver Stability (% loss) [7]: 5 % loss | Tissue Homogenate Metabolism (1 µM) | Liver Taxol Release (% gain) [7]: 5 % gain | Tissue Homogenate Metabolism (1 µM) | PC3 Stability (% loss) [7]: 82 % loss | Tissue Homogenate Metabolism (1 µM) | PC3 Taxol Release (% gain) [7]: 36 % gain | Tissue Homogenate Metabolism (10 µM) | HT1080 Stability (% loss) [8]: 61 % loss | Tissue Homogenate Metabolism (10 µM) | HT1080 Taxol Release (% gain) [8]: 30 % gain | Tissue Homogenate Metabolism (10 µM) | Liver Stability (% loss) [8]: 0 % loss | Tissue Homogenate Metabolism (10 µM) | Liver Taxol Release (% gain) [8]: 8 % gain | Tissue Homogenate Metabolism (10 µM) | PC3 Stability (% loss) [8]: 80 % loss | Tissue Homogenate Metabolism (10 µM) | PC3 Taxol Release (% gain) [8]: 36 % gain | Cell Culture Metabolism (20uM) | LNCaP (2) Stability (% loss) [9]: 62 % loss | Cell Culture Metabolism (20uM) | LNCaP (2) Taxol Release (% gain) [9]: 51 % gain | Cell Culture Metabolism (20uM) | LNCaP Stability (% loss) [9]: 61 % loss | Cell Culture Metabolism (20uM) | LNCaP Taxol Release (% gain) [9]: 62 % gain | Cell Culture Metabolism (20uM) | PC3 Stability (% loss) [9]: 89 % loss | Cell Culture Metabolism (20uM) | PC3 Taxol Release (% gain) [9]: 49 % gain | Cell Culture Metabolism (20uM) | PNT2 Stability (% loss) [9]: 60 % loss | Cell Culture Metabolism (20uM) | PNT2 Taxol Release (% gain) [9]: 22 % gain | Tissue Homogenate Metabolism (1uM) | Kidney Stability (% loss) [10]: 32 % loss | Tissue Homogenate Metabolism (1uM) | Kidney Taxol Release (% gain) [10]: 25 % gain | Tissue Homogenate Metabolism (1uM) | Lung Stability (% loss) [10]: 64 % loss | Tissue Homogenate Metabolism (1uM) | Lung Taxol Release (% gain) [10]: 31 % gain
